Positions count from the first letter of the chain named. Blank lines part the entries; values can stand above or below the binder they belong to.
Columns and labels:
Human BMP1-1 = target: T1, Human BMP1-1 (human, UniProt P13497-2 121-730, limits assumed); test: cell-based or functional assay
T1 sequence (looked up): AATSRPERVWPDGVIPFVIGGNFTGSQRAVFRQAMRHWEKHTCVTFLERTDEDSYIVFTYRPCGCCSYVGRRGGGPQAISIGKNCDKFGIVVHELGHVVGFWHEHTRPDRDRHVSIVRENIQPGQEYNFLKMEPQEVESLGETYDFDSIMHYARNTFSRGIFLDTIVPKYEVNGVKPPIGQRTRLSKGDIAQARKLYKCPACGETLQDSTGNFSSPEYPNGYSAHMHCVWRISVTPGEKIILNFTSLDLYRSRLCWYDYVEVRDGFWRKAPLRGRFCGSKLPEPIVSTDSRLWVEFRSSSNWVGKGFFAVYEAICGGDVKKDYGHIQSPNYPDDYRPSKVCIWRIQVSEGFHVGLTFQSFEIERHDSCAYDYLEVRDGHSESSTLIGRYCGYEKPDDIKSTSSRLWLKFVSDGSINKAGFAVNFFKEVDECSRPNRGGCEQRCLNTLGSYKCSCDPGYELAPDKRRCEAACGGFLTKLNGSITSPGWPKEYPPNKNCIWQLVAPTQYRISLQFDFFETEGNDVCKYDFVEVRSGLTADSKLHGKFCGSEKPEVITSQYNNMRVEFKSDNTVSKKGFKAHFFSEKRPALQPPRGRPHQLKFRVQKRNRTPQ

Human TLL2 = target: T2, Human TLL2 (human, UniProt Q9Y6L7 150-1015, limits assumed); test: cell-based or functional assay
T2 sequence (looked up): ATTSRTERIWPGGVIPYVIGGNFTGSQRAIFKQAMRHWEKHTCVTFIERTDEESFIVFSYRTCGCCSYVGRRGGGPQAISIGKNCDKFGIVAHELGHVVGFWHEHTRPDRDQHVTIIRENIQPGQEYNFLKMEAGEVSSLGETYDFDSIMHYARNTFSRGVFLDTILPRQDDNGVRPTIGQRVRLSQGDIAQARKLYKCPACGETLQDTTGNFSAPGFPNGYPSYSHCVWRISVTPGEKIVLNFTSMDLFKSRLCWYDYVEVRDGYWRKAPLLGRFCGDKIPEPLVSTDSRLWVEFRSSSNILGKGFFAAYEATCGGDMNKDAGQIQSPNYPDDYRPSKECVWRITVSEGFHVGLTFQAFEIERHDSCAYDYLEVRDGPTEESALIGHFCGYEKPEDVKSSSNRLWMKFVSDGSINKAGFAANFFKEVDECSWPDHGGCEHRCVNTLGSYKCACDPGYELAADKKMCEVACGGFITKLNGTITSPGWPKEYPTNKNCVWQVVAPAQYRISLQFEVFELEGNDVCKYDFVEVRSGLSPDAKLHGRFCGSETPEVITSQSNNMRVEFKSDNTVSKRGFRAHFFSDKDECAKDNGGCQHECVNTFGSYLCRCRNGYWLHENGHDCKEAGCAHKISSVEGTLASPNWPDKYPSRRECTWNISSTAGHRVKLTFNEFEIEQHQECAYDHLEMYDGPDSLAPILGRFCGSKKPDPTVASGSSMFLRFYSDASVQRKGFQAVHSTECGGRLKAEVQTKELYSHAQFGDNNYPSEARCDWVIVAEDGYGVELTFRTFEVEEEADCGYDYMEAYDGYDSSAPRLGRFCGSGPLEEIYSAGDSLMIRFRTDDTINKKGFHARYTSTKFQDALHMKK

[1] = target: T3, Human BMP1 CD+CUB1 truncated antigen (human, UniProt P13497 121-434, limits assumed); test: SPR, mAb captured on protein A, HBS-EP
T3 construct: domain: CD+CUB1
T3 sequence (looked up): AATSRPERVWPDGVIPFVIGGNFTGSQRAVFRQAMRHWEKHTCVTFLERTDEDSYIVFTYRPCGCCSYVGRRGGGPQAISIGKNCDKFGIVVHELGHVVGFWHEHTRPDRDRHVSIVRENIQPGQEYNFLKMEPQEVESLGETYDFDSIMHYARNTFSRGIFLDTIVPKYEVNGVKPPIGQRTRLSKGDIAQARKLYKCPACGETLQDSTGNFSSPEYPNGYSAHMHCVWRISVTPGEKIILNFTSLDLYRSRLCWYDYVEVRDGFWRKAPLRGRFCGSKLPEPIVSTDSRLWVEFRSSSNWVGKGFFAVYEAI
Method: The 16 lead panel antibodies expressed in HEK cells were evaluated for binding to a truncated version of human BMP containing the catalytic domain and truncated domain (Human BMP1 CD+CUB1 truncated antigen) by SPR using BIACORE T200. HBS-EP+ buffer was used and the experiment run at 25° C. Protein A was immobilised to a CM5 sensor chip via amine coupling. The lead panel antibodies were captured onto protein A surface. Human BMP1 CD+CUB1 was then passed over the captured antibodies at various concentrations.

IC50, FRET enzyme activity, 62.5 pM huBMP1 (Human BMP1-1): 0.4 nM | IC50, FRET enzyme activity, 500 pM huTLL-2 (Human TLL2): 0.15 nM | Kd [1]: 0.3 nM
B1: 13Y039-127G03-2890 (antibody, human IgG1, kappa, V domains shown)
VH: QVQLVQSGAEVKKPGSSVKVSCKASGGTFSSYAISWVRQAPGQGLEWMGGIIPVFGSAYYAQKFQGRVTITADESTSTAYMELSSLRSEDTAVYYCAGEGRAYYGSESYDDSDYMDVWGKGTTVTVSS
VL: DIQMTQSPSSLSASVGDRVTITCQASQDISNYLNWYQQKPGKAPKLLIYDASNLETGVPSRFSGSGSGTDFTFTISSLQPEDIATYYCQQADIFPLTFGGGTKVEIKR
notes: Fully human IgG1 LAGA, kappa; HEK expressed

IC50, FRET enzyme activity, 62.5 pM huBMP1 (Human BMP1-1): 0.13 nM | IC50, FRET enzyme activity, 500 pM huTLL-2 (Human TLL2): 0.28 nM | Kd [1]: 1.9 nM
B2: 13Y039-152B02-2940 (antibody, human IgG1, kappa, V domains shown)
VH: QVQLVQSGAEVKKPGSSVKVSCKASGGTFSSDAISWVRQAPGQGLEWMGGIITNFGTATYAQKFQGRVTITADESTSTAYMELSSLRSEDTAVYYCARDVGVQLVYHGAFDIWGQGTMVTVSS
VL: B1 VL with E55A, A91D, I93Y, F94L, L96I
notes: as for B1

IC50, FRET enzyme activity, 62.5 pM huBMP1 (Human BMP1-1): 0.31 nM | IC50, FRET enzyme activity, 500 pM huTLL-2 (Human TLL2): 0.86 nM | Kd [1]: 1.4 nM
B3: 13Y039-152B02-2948 (antibody, human IgG1, kappa, V domains shown)
VH: B2 VH with S31D, D32F, T53P, N54I, F55Y, T59S, Q65L
VL: B1 VL with E55A, A91D, I93Y, F94L, L96I
notes: as for B1

IC50, FRET enzyme activity, 62.5 pM huBMP1 (Human BMP1-1): 0.25 nM | IC50, FRET enzyme activity, 500 pM huTLL-2 (Human TLL2): 0.2 nM | Kd [1]: 0.8 nM
B4: 13Y039-152B02-2935 (antibody, human IgG1, kappa, V domains shown)
VH: B2 VH with S31E, D32S, T53P, N54T, G56D, A58T, T59N
VL: B1 VL with E55A, A91D, I93Y, F94L, L96I
notes: as for B1

IC50, FRET enzyme activity, 62.5 pM huBMP1 (Human BMP1-1): 0.02 nM | IC50, FRET enzyme activity, 500 pM huTLL-2 (Human TLL2): 0.04 nM | Kd [1]: 3.9 nM
B5: 13Y039-4B06-4324 (antibody, human IgG1, kappa, V domains shown)
VH: QVQLVQSGAEVKKPGASVKVSCKASGYTFRGYYMSWVRQAPGQGLEWMGWINPMSGETNYAQKFQGRVTMTRDTSISTAYMELSRLRSDDTAVYYCARDTGELDGMNWYFDLWGRGTLVTVSS
VL: EIVLTQSPATLSLSPGERATLSCRASQSVSSYLAWYQQKPGQAPRLLIYDASNRATGIPARFSGSGSGTDFTLTISSLEPEDFAVYYCQQSDSWPPTFGGGTKVEIKR
notes: as for B1

IC50, FRET enzyme activity, 62.5 pM huBMP1 (Human BMP1-1): 0.03 nM | IC50, FRET enzyme activity, 500 pM huTLL-2 (Human TLL2): 0.03 nM | Kd [1]: 1.9 nM
B6: 13Y039-4B06-4351 (antibody, human IgG1, kappa, V domains shown)
VH: B5 VH with R30S, M54N, N59F
VL: B5 VL
notes: as for B1

IC50, FRET enzyme activity, 62.5 pM huBMP1 (Human BMP1-1): 0.03 nM | IC50, FRET enzyme activity, 500 pM huTLL-2 (Human TLL2): 0.05 nM | Kd [1]: 2.8 nM
B7: 13Y039-4B06-4325 (antibody, human IgG1, kappa, V domains shown)
VH: B5 VH with R30W, M54Q
VL: B5 VL
notes: as for B1

IC50, FRET enzyme activity, 62.5 pM huBMP1 (Human BMP1-1): 0.02 nM | IC50, FRET enzyme activity, 500 pM huTLL-2 (Human TLL2): 0.05 nM | Kd [1]: 2.4 nM
B8: 13Y039-4B06-4364 (antibody, human IgG1, kappa, V domains shown)
VH: B5 VH with M54N, N59I
VL: B5 VL
notes: as for B1

IC50, FRET enzyme activity, 62.5 pM huBMP1 (Human BMP1-1): 0.02 nM | IC50, FRET enzyme activity, 500 pM huTLL-2 (Human TLL2): 0.04 nM | Kd [1]: 1.5 nM
B9: 13Y039-4B06-4348 (antibody, human IgG1, kappa, V domains shown)
VH: B5 VH with R30G, M54N, N59Y
VL: B5 VL
notes: as for B1

IC50, FRET enzyme activity, 62.5 pM huBMP1 (Human BMP1-1): 0.03 nM | IC50, FRET enzyme activity, 500 pM huTLL-2 (Human TLL2): 0.02 nM | Kd [1]: 2.8 nM
B10: 13Y039-4B06-4328 (antibody, human IgG1, kappa, V domains shown)
VH: B5 VH with R30H, S35N, M54L
VL: B5 VL
notes: as for B1

IC50, FRET enzyme activity, 62.5 pM huBMP1 (Human BMP1-1): 0.01 nM | IC50, FRET enzyme activity, 500 pM huTLL-2 (Human TLL2): 0.03 nM | Kd [1]: 1.5 nM
B11: 13Y039-4B06-4327 (antibody, human IgG1, kappa, V domains shown)
VH: B5 VH with R30P, S35T, W50N, M54N, E57W
VL: B5 VL
notes: as for B1

IC50, FRET enzyme activity, 62.5 pM huBMP1 (Human BMP1-1): 0.09 nM | IC50, FRET enzyme activity, 500 pM huTLL-2 (Human TLL2): 0.1 nM | Kd [1]: 3.3 nM
B12: 13Y039-4B06-4373 (antibody, human IgG1, kappa, V domains shown)
VH: B5 VH with G31S, S35N, W50I, M54S, N59S, I76T, A79V, R85S, D89E
VL: B5 VL
notes: as for B1

IC50, FRET enzyme activity, 62.5 pM huBMP1 (Human BMP1-1): 0.05 nM | IC50, FRET enzyme activity, 500 pM huTLL-2 (Human TLL2): 0.09 nM | Kd [1]: 3.7 nM
B13: 13Y039-4B06-4376 (antibody, human IgG1, kappa, V domains shown)
VH: B5 VH with R30M, S35N, M54S
VL: B5 VL
notes: as for B1
